Bridge positions count the residues as written; N and C are the ends. Square brackets hold non-standard residues; d marks the D form. Ends that are not written are not given here. Nva(3-Et) = CCC(CC)[C@H](N)C(=O)O; NMeI = CC[C@H](C)[C@H](NC)C(=O)O; tBuAla = CC(C)(C)C[C@H](N)C(=O)O; Chg = N[C@H](C(=O)O)C1CCCCC1; NMeC = CN[C@@H](CS)C(=O)O; NMeA = CN[C@@H](C)C(=O)O; Orn = NCCC[C@H](N)C(=O)O; Nva = CCC[C@H](N)C(=O)O; Abu = CC[C@H](N)C(=O)O

B1: Example 223: WIC+SRS-((tBu)A)-PPI-((N-Me)C)+I-NH2 (peptide)
peptide: WICSRS[tBuAla]PPI[NMeC]I-NH2
modifications: disulfide 3-11; N-terminus assumed
SMILES: CC[C@H](C)[C@H](NC(=O)[C@@H]1CSSC[C@H](NC(=O)[C@@H](NC(=O)[C@@H](N)Cc2c[nH]c3ccccc23)[C@@H](C)CC)C(=O)N[C@@H](CO)C(=O)N[C@@H](CCCNC(=N)N)C(=O)N[C@@H](CO)C(=O)N[C@@H](CC(C)(C)C)C(=O)N2CCC[C@H]2C(=O)N2CCC[C@H]2C(=O)N[C@@H]([C@@H](C)CC)C(=O)N1C)C(N)=O
B2: Example 154: HIC+SRS-((tBu)A)-PPI-((N-Me)C)+I-NH2 (peptide)
peptide: HICSRS[tBuAla]PPI[NMeC]I-NH2
modifications: disulfide 3-11; N-terminus assumed
SMILES: CC[C@H](C)[C@H](NC(=O)[C@@H]1CSSC[C@H](NC(=O)[C@@H](NC(=O)[C@@H](N)Cc2c[nH]cn2)[C@@H](C)CC)C(=O)N[C@@H](CO)C(=O)N[C@@H](CCCNC(=N)N)C(=O)N[C@@H](CO)C(=O)N[C@@H](CC(C)(C)C)C(=O)N2CCC[C@H]2C(=O)N2CCC[C@H]2C(=O)N[C@@H]([C@@H](C)CC)C(=O)N1C)C(N)=O
B3: Example 181: FIC+SRS-((tBu)A)-PPI-((N-Me)C)+I-NH2 (peptide)
peptide: FICSRS[tBuAla]PPI[NMeC]I-NH2
modifications: disulfide 3-11; N-terminus assumed
SMILES: CC[C@H](C)[C@H](NC(=O)[C@@H]1CSSC[C@H](NC(=O)[C@@H](NC(=O)[C@@H](N)Cc2ccccc2)[C@@H](C)CC)C(=O)N[C@@H](CO)C(=O)N[C@@H](CCCNC(=N)N)C(=O)N[C@@H](CO)C(=O)N[C@@H](CC(C)(C)C)C(=O)N2CCC[C@H]2C(=O)N2CCC[C@H]2C(=O)N[C@@H]([C@@H](C)CC)C(=O)N1C)C(N)=O
B4: Example 175: ((N-Me)A)-IC+SRS-((tBu)A)-PPI-((N-Me)C)+IPD-NH2 (peptide)
peptide: [NMeA]ICSRS[tBuAla]PPI[NMeC]IPD-NH2
modifications: disulfide 3-11; N-terminus assumed
SMILES: CC[C@H](C)[C@H](NC(=O)[C@H](C)NC)C(=O)N[C@H]1CSSC[C@@H](C(=O)N[C@H](C(=O)N2CCC[C@H]2C(=O)N[C@@H](CC(=O)O)C(N)=O)[C@@H](C)CC)N(C)C(=O)[C@H]([C@@H](C)CC)NC(=O)[C@@H]2CCCN2C(=O)[C@@H]2CCCN2C(=O)[C@H](CC(C)(C)C)NC(=O)[C@H](CO)NC(=O)[C@H](CCCNC(=N)N)NC(=O)[C@H](CO)NC1=O
B5: Example 222: AIC+SRSLPP-(Chg)-C+IPD-OH (peptide)
peptide: AICSRSLPP[Chg]CIPD-OH
modifications: disulfide 3-11; N-terminus assumed
SMILES: CC[C@H](C)[C@H](NC(=O)[C@H](C)N)C(=O)N[C@H]1CSSC[C@@H](C(=O)N[C@H](C(=O)N2CCC[C@H]2C(=O)N[C@@H](CC(=O)O)C(=O)O)[C@@H](C)CC)NC(=O)[C@H](C2CCCCC2)NC(=O)[C@@H]2CCCN2C(=O)[C@@H]2CCCN2C(=O)[C@H](CC(C)C)NC(=O)[C@H](CO)NC(=O)[C@H](CCCNC(=N)N)NC(=O)[C@H](CO)NC1=O
B6: Example 169: (Abu)-IC+SRSLPP-(Chg)-C+IPD-NH2 (peptide)
peptide: [Abu]ICSRSLPP[Chg]CIPD-NH2
modifications: disulfide 3-11; N-terminus assumed
SMILES: CC[C@H](N)C(=O)N[C@H](C(=O)N[C@H]1CSSC[C@@H](C(=O)N[C@H](C(=O)N2CCC[C@H]2C(=O)N[C@@H](CC(=O)O)C(N)=O)[C@@H](C)CC)NC(=O)[C@H](C2CCCCC2)NC(=O)[C@@H]2CCCN2C(=O)[C@@H]2CCCN2C(=O)[C@H](CC(C)C)NC(=O)[C@H](CO)NC(=O)[C@H](CCCNC(=N)N)NC(=O)[C@H](CO)NC1=O)[C@@H](C)CC
B7: Example 205: G-((N-Me)I)-C+SRSLPPIC+IPD-NH2 (HCl salt) (peptide)
peptide: G[NMeI]CSRSLPPICIPD-NH2
modifications: disulfide 3-11; also: HCl salt
B8: Example 182: YIC+SRS-((tBu)A)-PPI-((N-Me)C)+I-NH2 (peptide)
peptide: YICSRS[tBuAla]PPI[NMeC]I-NH2
modifications: disulfide 3-11; N-terminus assumed
SMILES: CC[C@H](C)[C@H](NC(=O)[C@@H]1CSSC[C@H](NC(=O)[C@@H](NC(=O)[C@@H](N)Cc2ccc(O)cc2)[C@@H](C)CC)C(=O)N[C@@H](CO)C(=O)N[C@@H](CCCNC(=N)N)C(=O)N[C@@H](CO)C(=O)N[C@@H](CC(C)(C)C)C(=O)N2CCC[C@H]2C(=O)N2CCC[C@H]2C(=O)N[C@@H]([C@@H](C)CC)C(=O)N1C)C(N)=O
B9: Example 186: (Orn)-IC+SRS-((tBu)A)-PPIC+I-NH2 (peptide)
peptide: [Orn]ICSRS[tBuAla]PPICI-NH2
modifications: disulfide 3-11; N-terminus assumed
SMILES: CC[C@H](C)[C@H](NC(=O)[C@@H]1CSSC[C@H](NC(=O)[C@@H](NC(=O)[C@@H](N)CCCN)[C@@H](C)CC)C(=O)N[C@@H](CO)C(=O)N[C@@H](CCCNC(=N)N)C(=O)N[C@@H](CO)C(=O)N[C@@H](CC(C)(C)C)C(=O)N2CCC[C@H]2C(=O)N2CCC[C@H]2C(=O)N[C@@H]([C@@H](C)CC)C(=O)N1)C(N)=O
B10: Example 216: (Nva)-IC+SRSLPPIC+IPD-NH2 (peptide)
peptide: [Nva]ICSRSLPPICIPD-NH2
modifications: disulfide 3-11; N-terminus assumed
SMILES: CCC[C@H](N)C(=O)N[C@H](C(=O)N[C@H]1CSSC[C@@H](C(=O)N[C@H](C(=O)N2CCC[C@H]2C(=O)N[C@@H](CC(=O)O)C(N)=O)[C@@H](C)CC)NC(=O)[C@H]([C@@H](C)CC)NC(=O)[C@@H]2CCCN2C(=O)[C@@H]2CCCN2C(=O)[C@H](CC(C)C)NC(=O)[C@H](CO)NC(=O)[C@H](CCCNC(=N)N)NC(=O)[C@H](CO)NC1=O)[C@@H](C)CC
B11: Example 210: AIC+SRS-((tBu)A)-PPIC+IDD-OH (peptide)
peptide: AICSRS[tBuAla]PPICIDD-OH
modifications: disulfide 3-11; N-terminus assumed
SMILES: CC[C@H](C)[C@H](NC(=O)[C@H](C)N)C(=O)N[C@H]1CSSC[C@@H](C(=O)N[C@H](C(=O)N[C@@H](CC(=O)O)C(=O)N[C@@H](CC(=O)O)C(=O)O)[C@@H](C)CC)NC(=O)[C@H]([C@@H](C)CC)NC(=O)[C@@H]2CCCN2C(=O)[C@@H]2CCCN2C(=O)[C@H](CC(C)(C)C)NC(=O)[C@H](CO)NC(=O)[C@H](CCCNC(=N)N)NC(=O)[C@H](CO)NC1=O
B12: Example 209: AIC+SRSLPP-((S)-2-amino-3-ethyl-pentanoic acid)-C+IPD-NH2 (peptide)
peptide: AICSRSLPP[Nva(3-Et)]CIPD-NH2
modifications: disulfide 3-11; N-terminus assumed
SMILES: CCC(CC)[C@@H]1NC(=O)[C@@H]2CCCN2C(=O)[C@@H]2CCCN2C(=O)[C@H](CC(C)C)NC(=O)[C@H](CO)NC(=O)[C@H](CCCNC(=N)N)NC(=O)[C@H](CO)NC(=O)[C@@H](NC(=O)[C@@H](NC(=O)[C@H](C)N)[C@@H](C)CC)CSSC[C@@H](C(=O)N[C@H](C(=O)N2CCC[C@H]2C(=O)N[C@@H](CC(=O)O)C(N)=O)[C@@H](C)CC)NC1=O

This assay addresses T1, recombinant rat MASP1 active protease (amino acids 302-704, C-terminal His Tag) (rat, UniProt Q8CHN8 302-704).
T1 sequence: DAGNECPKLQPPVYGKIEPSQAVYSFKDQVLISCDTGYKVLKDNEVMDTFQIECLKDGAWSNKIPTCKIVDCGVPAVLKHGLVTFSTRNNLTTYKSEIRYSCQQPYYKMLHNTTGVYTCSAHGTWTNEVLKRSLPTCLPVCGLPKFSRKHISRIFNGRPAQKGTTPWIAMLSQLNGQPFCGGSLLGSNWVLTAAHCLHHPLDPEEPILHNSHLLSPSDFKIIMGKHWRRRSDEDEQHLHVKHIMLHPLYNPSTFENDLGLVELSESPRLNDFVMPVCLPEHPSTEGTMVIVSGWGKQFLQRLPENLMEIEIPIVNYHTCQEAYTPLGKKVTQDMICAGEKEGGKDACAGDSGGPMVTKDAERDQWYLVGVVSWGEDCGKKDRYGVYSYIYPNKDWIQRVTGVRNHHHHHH
Description: cell-based or functional assay.
On to B1, for which the “rat MASP1 IC50” value was 0.12 µM.

For B2, the “rat MASP1 IC50” value was found to be 0.072 µM.

As for B3, the “rat MASP1 IC50” value is 0.13 µM.

Regarding B4, the “rat MASP1 IC50” value was found to be 0.028 µM.

In the case of B5, the “rat MASP1 IC50” value was 0.24 µM.

With B6, the “rat MASP1 IC50” value turned out to be 0.37 µM.

As to B7, the “rat MASP1 IC50” value is 0.3 µM.

B8: the “rat MASP1 IC50” value came to 0.013 µM.

For B9, the “rat MASP1 IC50” value turned out to be 0.38 µM.

For B10, the “rat MASP1 IC50” value was 0.24 µM.

As for B11, the “rat MASP1 IC50” value was determined as 0.019 µM.

As for B12, the “rat MASP1 IC50” value was determined as 0.33 µM.
